# Literature values as cited in patent US20180296542A1, “IMINOSUGARS FOR IMPROVING BONE MINERAL DENSITY IN BONE DISEASE” (Saint Louis University, priority 2015, published 2018).
# System: Akp2^−/− mice
# Details: cited from earlier work
molecule,measurement,setting,value
"untagged, native human TNSALP: untagged, native human tissue nonspecific alkaline phosphatase used for ERT in Akp2−/− mice (protein, UniProt P05186 18-501, looked up) Alkaline phosphatase, …: LVPEKEKDPKYWRDQAQETLKYALELQKLNTNVAKNVIMFLGDGMGVSTVTAARILKGQLHHNPGEETRLEMDKFPFVALSKTYNTNAQVPDSAGTATAYLCGVKANEGTVGVSAATERSRCNTTQGNEVTSILRWAKDAGKSVGIVTTTRVNHATPSAAYAHSADRDWYSDNEMPPEALSQGCKDIAYQLMHNIRDIDVIMGGGRKYMYPKNKTDVEYESDEKARGTRLDGLDLVDTWKSFKPRYKHSHFIWNRTELLTLDPHNVDYLLGLFEPGDMQYELNRNNVTDPSLSEMVVVAIQILRKNPKGFFLLVEGGRIDHGHHEGKAKQALHEAVEMDRAIGQAGSLTSSEDTLTVVTADHSHVFTFGGYTPRGNSIFGLAPMLSDTDKKPFTAILYGNGPGYKVVGGERENVSMVDYAHNNYQAQSAVPLRHETHGGEDVAVFSKGPMAHLLHGVHEQNYVPHVMAYAACIGANLGHCAPAS",Bone findings after 6 months,after 6 months,hypomineralization and abnormal proliferative chondrocytes presented
same,Growth and fertility compared to untreated knock-out animals,,better growth and normal fertility
same,Length of life compared to untreated knock-out animals,,longer lives
